Data taken from publication PMC3201810.

Biological target: Bacillus cereus ChbC (EIIC component of the diacetylchitobiose phosphotransferase system) (Bacillus cereus)
Test: SEC-MALS

- stoichiometry N: 2
Substance: Bacillus cereus ChbC (EIIC component of the diacetylchitobiose phosphotransferase system) (natural protein)
